What was measured:
Tau-410 = Tau-410 (UniProt P10636)
Tau-441 (P301L) = Tau-441 (P301L) (UniProt P10636)
p-Tau-441 = p-Tau-441 (UniProt P10636)
α-synuclein = α-synuclein (UniProt P37840)
Boc-QAR-AMC (ES014) = tested on: T1, Boc-QAR-AMC (ES014)
T1 sequence: QAR

Sequence of p-Tau-441 (P10636 whole entry, looked up): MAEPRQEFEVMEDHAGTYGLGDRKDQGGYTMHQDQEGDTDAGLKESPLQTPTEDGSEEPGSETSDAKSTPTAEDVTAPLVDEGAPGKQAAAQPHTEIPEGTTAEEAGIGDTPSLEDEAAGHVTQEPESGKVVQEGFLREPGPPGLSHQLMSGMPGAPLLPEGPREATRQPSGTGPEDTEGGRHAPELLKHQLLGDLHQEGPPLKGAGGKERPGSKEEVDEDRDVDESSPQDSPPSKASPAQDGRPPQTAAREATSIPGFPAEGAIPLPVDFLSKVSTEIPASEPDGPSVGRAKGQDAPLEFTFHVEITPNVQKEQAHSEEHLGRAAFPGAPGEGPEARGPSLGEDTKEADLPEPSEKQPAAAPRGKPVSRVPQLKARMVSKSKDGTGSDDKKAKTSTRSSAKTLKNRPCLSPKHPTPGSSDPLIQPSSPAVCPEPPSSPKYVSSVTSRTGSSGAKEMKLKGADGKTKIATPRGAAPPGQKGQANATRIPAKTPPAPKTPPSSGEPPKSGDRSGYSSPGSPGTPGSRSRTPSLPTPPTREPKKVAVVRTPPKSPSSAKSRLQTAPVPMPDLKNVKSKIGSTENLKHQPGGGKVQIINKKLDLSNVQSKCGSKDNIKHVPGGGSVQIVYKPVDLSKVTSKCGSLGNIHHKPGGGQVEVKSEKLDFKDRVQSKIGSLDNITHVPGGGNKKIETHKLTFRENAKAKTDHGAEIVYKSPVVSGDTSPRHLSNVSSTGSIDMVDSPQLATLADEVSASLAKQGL
Sequence of Tau-410 (P10636 other isoform, or with tags, fused parts or gaps): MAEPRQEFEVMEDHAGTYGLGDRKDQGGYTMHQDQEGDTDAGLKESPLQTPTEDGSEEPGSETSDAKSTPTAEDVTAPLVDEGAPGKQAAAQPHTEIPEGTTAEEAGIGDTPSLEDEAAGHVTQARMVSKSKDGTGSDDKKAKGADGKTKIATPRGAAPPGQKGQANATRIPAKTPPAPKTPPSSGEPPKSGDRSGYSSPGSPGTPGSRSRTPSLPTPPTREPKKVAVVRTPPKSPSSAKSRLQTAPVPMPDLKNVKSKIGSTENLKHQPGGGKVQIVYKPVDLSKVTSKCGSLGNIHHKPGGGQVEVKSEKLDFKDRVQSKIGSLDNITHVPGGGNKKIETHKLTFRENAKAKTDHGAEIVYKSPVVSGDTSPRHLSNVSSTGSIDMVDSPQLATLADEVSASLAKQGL
Sequence of Tau-441 (P301L) (P10636 other isoform, or with tags, fused parts or gaps P301L): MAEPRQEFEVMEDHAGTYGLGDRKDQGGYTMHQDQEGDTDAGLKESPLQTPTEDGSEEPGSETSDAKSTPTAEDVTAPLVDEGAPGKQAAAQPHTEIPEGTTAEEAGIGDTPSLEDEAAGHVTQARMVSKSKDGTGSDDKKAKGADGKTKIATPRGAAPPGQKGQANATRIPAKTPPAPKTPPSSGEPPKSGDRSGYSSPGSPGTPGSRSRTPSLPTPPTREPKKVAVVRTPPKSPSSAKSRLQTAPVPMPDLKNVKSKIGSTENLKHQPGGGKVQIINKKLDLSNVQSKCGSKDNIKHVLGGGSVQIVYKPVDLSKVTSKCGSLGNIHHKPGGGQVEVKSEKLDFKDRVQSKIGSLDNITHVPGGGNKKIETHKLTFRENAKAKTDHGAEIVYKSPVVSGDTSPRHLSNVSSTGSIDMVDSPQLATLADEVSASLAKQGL

Substance	casein digestion by resin-immobilized protease, RFU (520 nm) over time (Bodipy-labelled casein)	casein digestion by resin-immobilized protease, RFU over time (Bodipy-labelled casein)	casein digestion by resin-immobilized protease, fluorescence (RFU) at 5 and 60 min (Bodipy-labelled casein)	casein digestion, fluorescence (RFU) of Bodipy-labelled casein after 1 h against protease concentration in solution (Bodipy-labelled casein)	casein-digestion activity, immobilized protease, fluorescence (Bodipy-labelled casein)	casein-digestion activity, immobilized protease, fluorescence (FIG. 2B) (Bodipy-labelled casein)	casein-digestion activity, protease in solution, fluorescence (Bodipy-labelled casein)	% digestion at 0 min (Tau-410)	% digestion at 1 min (Tau-410)	% digestion at 5 min (Tau-410)	% digestion at 60 min (Tau-410)	digestion on immobilized protease column (FIGS. 3B, 3C, 3E, 3F and Table 2) (Tau-410)	digestion on immobilized protease column, SDS-PAGE silver stain (FIG. 3A) (Tau-441 (P301L))	loss of the Tau-441 (P301L) band on a silver-stained SDS-PAGE gel after incubation on the protease column (Tau-441 (P301L))	% digestion at 0 min (p-Tau-441)	% digestion at 1 min (p-Tau-441)	% digestion at 5 min (p-Tau-441)	% digestion at 60 min (p-Tau-441)	digestion on immobilized protease column (FIGS. 3B, 3C, 3E, 3F and Table 2) (p-Tau-441)	% digestion at 0 min (α-synuclein)	other results
trypsin	rises from 0 to about 46000 RFU at 60 min and about 58000 RFU at 120 min; Control-Resin (no protease) stays at or slightly below 0	rises from 0 to about 24000 RFU at 60 min and about 76000 RFU at 120 min; control resin stays at about 0	bar at 5 min about 1.0x10^7 RFU, bar at 60 min about 2.2x10^7 RFU; lowest of the three groups; no control bar drawn	near 0 up to about 0.2 ug/ml, rises slowly to about 1.4x10^7 RFU at 100 ug/ml; no upper plateau; lowest of the three curves	exhibited casein-digestion activity at 5 minute and 60 minute incubation times	exhibited casein-digestion activity at 60 minute and 120 minute incubation times	exhibited casein-digestion activity having linear reaction kinetics up to approximately 6 µg/ml of each protease	0%	59%	65%	93%	rapidly degraded	rapidly degraded	no band in the Trypsin column lanes at 2, 10 and 20 min; the No protease column lanes show a strong band of equal strength at 2, 10 and 20 min	0%	70%	100%	100%	rapidly degraded	0%	% digestion at 1 min (α-synuclein): 90%; % digestion at 5 min (α-synuclein): 100%; % digestion at 60 min (α-synuclein): 100%; digestion on immobilized protease column (FIGS. 3D and 3G and Table 2) (α-synuclein): rapidly degraded
kallikrein-6 (KLK6) activated by lysyl endopeptidase		close to the control at 60 min (about 1000-2000 RFU), then about 19000 RFU at 120 min; control resin stays at about 0			also exhibited casein-digestion activity at 120 minute incubation time																cleavage of fluorogenic peptide substrate, immobilized protease, 30, 60, 120 min (Boc-QAR-AMC (ES014)): exhibited protease activity at all time points tested; cleavage of the fluorogenic peptide substrate by resin-immobilized protease, AMC fluorescence (RFU) over time (Boc-QAR-AMC (ES014)): about 65000 RFU at 30 min, about 108000 at 60 min and about 215000 at 120 min, still rising; Control resin + ES014 stays at 0
elastase	rises from 0 to about 107000 RFU at 60 min and about 150000 RFU at 120 min; Control-Resin (no protease) stays at or slightly below 0	rises from 0 to about 40000 RFU at 60 min and about 95000 RFU at 120 min; highest curve; control resin stays at about 0	bar at 5 min about 1.5x10^7 RFU, bar at 60 min about 4.3x10^7 RFU; signal grows with time; no control bar drawn	near 0 at about 0.006 ug/ml, rises steadily to about 8.5x10^7 RFU at 100 ug/ml on a log axis; still rising, no upper plateau; highest of the three curves	exhibited casein-digestion activity at 5 minute and 60 minute incubation times	exhibited casein-digestion activity at 60 minute and 120 minute incubation times	exhibited casein-digestion activity having linear reaction kinetics up to approximately 6 µg/ml of each protease	0%	28%	50%	81%	rapidly degraded	rapidly degraded	no band in the Elastase column lanes at 2, 10 and 20 min; the No protease column lanes show a strong band of equal strength at 2, 10 and 20 min, just above the second labelled marker	0%	33%	93%	100%	rapidly degraded	0%	% digestion at 1 min (α-synuclein): 71%; digestion on immobilized protease column (FIGS. 3D and 3G and Table 2) (α-synuclein): rapidly degraded
Cathepsin D resin		no signal: the line falls from 0 to about -6000 RFU at 120 min, at or below the control resin (about 0) over the whole time range																			
